Reference: publication PMC10397247
Read-outs that look alike come from different tables or passages of the source.

T1: 4H881-AA
T1 chain: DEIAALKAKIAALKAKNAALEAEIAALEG

T2: 4H993-AA
T2 chain: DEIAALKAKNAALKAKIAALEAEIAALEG

T3: 4H906-AA
T3 chain: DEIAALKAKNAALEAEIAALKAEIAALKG

T4: 4H797-AA
T4 chain: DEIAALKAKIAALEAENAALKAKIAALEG

T5: 4H536-AA
T5 chain: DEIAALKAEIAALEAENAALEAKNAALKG

T6: 4H94-AA
T6 chain: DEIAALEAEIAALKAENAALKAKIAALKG

T7: 4H891-AA
T7 chain: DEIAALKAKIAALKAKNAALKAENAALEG

T8: 4H710-AA
T8 chain: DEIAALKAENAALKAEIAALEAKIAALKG

T9: 4H485-AA
T9 chain: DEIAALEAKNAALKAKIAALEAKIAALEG

T10: 4H909-AA
T10 chain: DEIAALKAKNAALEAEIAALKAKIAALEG

T11: 4H570-AA
T11 chain: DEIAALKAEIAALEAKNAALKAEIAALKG

T12: 4H745-AA
T12 chain: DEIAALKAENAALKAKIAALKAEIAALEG

T13: 4H930-AA
T13 chain: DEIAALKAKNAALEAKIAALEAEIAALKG

T14: 4H850-AA
T14 chain: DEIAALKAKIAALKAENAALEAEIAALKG

T15: 4H629-AA
T15 chain: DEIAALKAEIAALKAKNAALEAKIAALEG

T16: 4H780-AA
T16 chain: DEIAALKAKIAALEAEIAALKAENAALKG

T17: 4H794-AA
T17 chain: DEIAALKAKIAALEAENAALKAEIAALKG

T18: 4H678-AA
T18 chain: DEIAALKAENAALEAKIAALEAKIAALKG

T19: 4H717-AA
T19 chain: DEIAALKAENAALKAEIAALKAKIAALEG

T20: 4H566-AA
T20 chain: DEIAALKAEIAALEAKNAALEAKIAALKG

T21: 4H605-AA
T21 chain: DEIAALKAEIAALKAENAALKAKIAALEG

T22: 4H458-AA
T22 chain: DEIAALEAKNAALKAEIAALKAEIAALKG


Tests used:
Test in all cases: two-hybrid library CCmax;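 note: natural log of median RNA to DNA barcode read ratio; higher means stronger binding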
4H881-AA = biological target: T1, 4H881-AA
4H993-AA = biological target: T2, 4H993-AA
4H906-AA = biological target: T3, 4H906-AA
4H797-AA = biological target: T4, 4H797-AA; details: mean of both orientations
4H536-AA = biological target: T5, 4H536-AA; details: mean of both orientations
4H94-AA = biological target: T6, 4H94-AA; details: mean of both orientations
4H891-AA = biological target: T7, 4H891-AA
4H710-AA = biological target: T8, 4H710-AA; details: mean of both orientations
4H485-AA = biological target: T9, 4H485-AA
4H909-AA = biological target: T10, 4H909-AA; details: mean of both orientations
4H570-AA = biological target: T11, 4H570-AA
4H745-AA = biological target: T12, 4H745-AA
4H930-AA = biological target: T13, 4H930-AA; details: mean of both orientations
4H850-AA = biological target: T14, 4H850-AA; details: mean of both orientations
4H629-AA = biological target: T15, 4H629-AA
4H780-AA = biological target: T16, 4H780-AA
4H794-AA = biological target: T17, 4H794-AA
4H678-AA = biological target: T18, 4H678-AA
4H717-AA = biological target: T19, 4H717-AA; details: mean of both orientations
4H566-AA = biological target: T20, 4H566-AA
4H605-AA = biological target: T21, 4H605-AA; details: mean of both orientations
4H458-AA = biological target: T22, 4H458-AA

| Binder | interaction score (4H993-AA; mean of both orientations) | interaction score (4H906-AA; mean of both orientations) | interaction score (4H797-AA) | interaction score (4H94-AA) | interaction score (4H891-AA; mean of both orientations) | interaction score (4H710-AA) | interaction score (4H909-AA) | interaction score (4H930-AA) | interaction score (4H850-AA) | interaction score (4H881-AA; mean of both orientations) | other results |
| --- | --- | --- | --- | --- | --- | --- | --- | --- | --- | --- | --- |
| DEIAALKAKIAALKAKNAALEAEIAALEG [4H881-AA] | 1.82 | -1.49 |  |  |  |  |  |  |  |  | interaction score (4H881-AA): -0.685 |
| DEIAALEAKNAALKAKIAALEAKIAALEG [4H485-AA] |  |  | -0.968 | -1.46 | -2.05 | 1.71 | -0.153 | -0.103 | 1.97 |  | interaction score (4H536-AA): -1.29; interaction score (4H485-AA): 1.06; interaction score (4H570-AA; mean of both orientations): -1.69; interaction score (4H745-AA): 1.2; interaction score (4H629-AA; mean of both orientations): -1.15 |
| DEIAALKAEIAALKAKNAALEAKIAALEG [4H629-AA] |  |  | -1.05 | -0.298 | -1.48 | -0.399 | -1.56 | -1.41 | -0.0456 |  | interaction score (4H745-AA; mean of both orientations): -1.44; interaction score (4H629-AA): 1.86 |
| DEIAALKAKIAALEAEIAALKAENAALKG [4H780-AA] | -1.51 | -1.19 |  |  |  |  |  |  |  | -1.27 | interaction score (4H780-AA): 1.68; interaction score (4H794-AA; mean of both orientations): -1.57 |
| DEIAALKAEIAALEAKNAALKAEIAALKG [4H570-AA] |  |  | 0.178 | 1.71 | -0.736 | -1.47 | -1.22 | -1.1 | 1.66 |  | interaction score (4H570-AA): 1.51; interaction score (4H745-AA; mean of both orientations): -1.48; interaction score (4H629-AA; mean of both orientations): -0.598 |
| DEIAALKAKNAALKAKIAALEAEIAALEG [4H993-AA] |  |  |  |  |  |  |  |  |  |  | interaction score (4H993-AA): 1.19 |
| DEIAALKAKNAALEAEIAALKAEIAALKG [4H906-AA] | -0.00106 |  |  |  |  |  |  |  |  |  | interaction score (4H906-AA): 1.74 |
| DEIAALKAENAALEAKIAALEAKIAALKG [4H678-AA] | 1.05 | -0.716 |  |  |  |  |  |  |  | 1.21 | interaction score (4H678-AA): 1.57; interaction score (4H780-AA; mean of both orientations): -1.59; interaction score (4H794-AA; mean of both orientations): -1.91; interaction score (4H717-AA): -0.0211 |
| DEIAALKAKIAALEAENAALKAEIAALKG [4H794-AA] | -1.99 | -1.42 |  |  |  |  |  |  |  | -0.532 | interaction score (4H794-AA): 1.84 |
| DEIAALKAEIAALEAKNAALEAKIAALKG [4H566-AA] | 1.6 | -1.33 |  |  |  |  |  |  |  | 1.95 | interaction score (4H678-AA; mean of both orientations): -0.948; interaction score (4H780-AA; mean of both orientations): -2; interaction score (4H566-AA): 2.14; interaction score (4H794-AA; mean of both orientations): -0.409; interaction score (4H605-AA): -0.184; interaction score (4H717-AA): -0.483 |
| DEIAALEAKNAALKAEIAALKAEIAALKG [4H458-AA] |  |  | -1.44 | -1.35 | -1.67 | 1.06 | -0.173 | -0.663 | 1.08 |  | interaction score (4H536-AA): -1.46; interaction score (4H458-AA): 1.87; interaction score (4H485-AA; mean of both orientations): -1.76; interaction score (4H570-AA; mean of both orientations): -0.947; interaction score (4H745-AA; mean of both orientations): 1.1; interaction score (4H629-AA): -1.64 |
| DEIAALKAKIAALKAKNAALKAENAALEG [4H891-AA] |  |  |  | -0.169 |  |  | -1.73 | -1.86 |  |  | interaction score (4H891-AA): -1.96 |
